Experimental data as given in article PMC5743471 (Theranostics, 2018).
One block for each binder: values may come before it.

Molecular target: mouse serum albumin (mouse, UniProt P07724 25-608)
Experiment: SPR

Kd: 1.4 ± 0.1 nM
B1: ABD-iTEP-pOVA (designed binder)
chain: LAEAKVLANRELDKYGVSDFYKRLINKAKTVEGVEALKLHILAALPGVGVPGGVGVPGGVGVPGGVGVPGGVGVPGGVGVPGGVGVPGGVGVPGGVGVPGGVGVPGGVGVPGGVGVPGGVGVPGGVGVPGGVGVPGGVGVPGGVGVPGGVGVPGGVGVPGGVGVPGGVGVPGGVGVPGGVGVPGGVGVPGGVGVPGGVGVPGGVGVPGGVGVPGGVGVPGGVGVPGGVGVPGGVGVPGGVGVPGGVGVPGGVGVPGGVLPGVGGVLPGVGGVLPGVGGVLPGVGGVLPGVGGVLPGVGGVLPGVGGVLPGVGGVLPGVGGVLPGVGGVLPGVGGVLPGVGGVLPGVGGVLPGVGGVLPGVGGVLPGVGGSIINFEKL

Kd: 1.41 ± 0.04 nM
koff: 0.00305 s⁻¹
kon: 2.17e+06 M⁻¹ s⁻¹
B2: ABD-iTEP (designed binder)
chain: LAEAKVLANRELDKYGVSDFYKRLINKAKTVEGVEALKLHILAALPGVGVPGGVGVPGGVGVPGGVGVPGGVGVPGGVGVPGGVGVPGGVGVPGGVGVPGGVGVPGGVGVPGGVGVPGGVGVPGGVGVPGGVGVPGGVGVPGGVGVPGGVGVPGGVGVPGGVGVPGGVGVPGGVGVPGGVGVPGGVGVPGGVGVPGGVGVPGGVGVPGGVGVPGGVGVPGGVGVPGGVGVPGGVGVPGGVGVPGGVGVPGGVGVPGGVLPGVGGVLPGVGGVLPGVGGVLPGVGGVLPGVGGVLPGVGGVLPGVGGVLPGVGGVLPGVGGVLPGVGGVLPGVGGVLPGVGGVLPGVGGVLPGVGGVLPGVGGVLPGVG
